Literature values as cited in publication PMC10343017.

Tests used:
TEM8 (Homo sapiens) = TEM8 (Homo sapiens) (UniProt Q9H6X2)
CMG2 (Homo sapiens) = CMG2 (Homo sapiens) (UniProt P58335)

protective antigen (from UniProt P13423)
Kd (TEM8 (Homo sapiens)): 130 nM
Kd (CMG2 (Homo sapiens)): 0.78 nM
